In the supplement of paper PMC10899765:

Columns and labels:
Conditions in all cases: 20 nM; 72 h
MCF10A [1] = assay: one-nucleolus phenotype percent effect (relative to siNT 0% and siNOL11 100%); higher = more cells with one nucleolus (ribosome biogenesis inhibition)
Method: (§1)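 After 72 h, cells were fixed and stained with Hoechst and anti-fibrillarin, and nucleoli per nucleus were counted with CellProfiler. Values are plate-adjusted percent effect for the one-nucleolus and 5+ nucleoli phenotypes, normalised to siNT (0%) and to the positive controls siNOL11 or siKIF11 (100%), as the mean of biological triplicates. Percent viability is the nuclei count relative to siNT.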

MCF10A [2] = assay: percent viability (nuclei count relative to siNT); higher = more viable cells
Method: as §1

MCF10A [3] = assay: 5+ nucleoli phenotype percent effect (relative to siNT 0% and siKIF11 100%); higher = more cells with five or more nucleoli
Method: as §1

Sequence	one-nucleolus phenotype percent effect (MCF10A [1])	percent viability (MCF10A [2])	5+ nucleoli phenotype percent effect (MCF10A [3])
UCGUACCGUGAGUAAUAAUGCG [hsa-miR-126-3p]	5.16%	30.2%	-0.677%
UCGUAUCAGAGAUUCCAGACAC [hsa-miR-6506-3p]	5.43%	85.1%	-11.2%
UCGUGCAUAUAUCUACCACAU [hsa-miR-4536-3p]	2.78%	49.3%	0.0637%
UCGUGGCCUGGUCUCCAUUAU [hsa-miR-1204]	-7.25%	48.3%	2.14%
UCGUGUCCCUCUUGUCCACAG [hsa-miR-6774-3p]	-27%	70%	58.8%
UCGUGUCUUGUGUUGCAGCCGG [hsa-miR-187-3p]	-7.21%	87.7%	-1.49%
UCGUUUGCCUUUUUCUGCUU [hsa-miR-1282]	-8.15%	84.2%	5.62%
UCUAAAGACUAGACUUCGCUAUG [hsa-miR-4744]	-22%	106%	32%
UCUACAAAGGAAAGCGCUUUCU [hsa-miR-1283]	-26.4%	148%	29.7%
UCUACAGUGCACGUGUCUCCAGU [hsa-miR-139-5p]	-8.78%	67.5%	-2.1%
UCUAGAAAUGCAUGACCCACC [hsa-miR-6508-5p]	-15.2%	112%	17.2%
UCUAGAGGAAGCACUUUCUGUUU [hsa-miR-520g-5p]	-24.2%	67.5%	34.9%
UCUAGGCUGGUACUGCUGA [hsa-miR-645]	-11.5%	59.5%	7.45%
UCUAGUAAGAGUGGCAGUCGA [hsa-miR-628-3p]	-7.59%	55.8%	31.5%
UCUAGUGCGGGCGUUCCCG [hsa-miR-6080]	-6.26%	85.3%	23.2%
UCUAUACAGACCCUGGCUUUUC [hsa-miR-1284]	-16.5%	75.8%	31.3%
UCUAUUCCCCACUCUCCCCAG [hsa-miR-6731-3p]	-0.0733%	32.5%	-13.6%
UCUCACACAGAAAUCGCACCCGU [hsa-miR-342-3p]	-2.78%	78.4%	-4.22%
UCUCACCCCAACUCUGCCCCAG [hsa-miR-6784-3p]	-25.6%	56.5%	44.3%
UCUCACUGUAGCCUCGAACCCC [hsa-miR-1304-3p]	-27.3%	44.7%	22.9%

Sequence	one-nucleolus phenotype percent effect (MCF10A [1])	percent viability (MCF10A [2])	5+ nucleoli phenotype percent effect (MCF10A [3])
UCUCAGCUGCUGCCCUCUCCAG [hsa-miR-6787-3p]	-24.6%	116%	41.8%
UCUCAGGAGUAAAGACAGAGUU [hsa-miR-3664-3p]	-19.4%	86.7%	17.2%
UCUCAGUAAGUGGCACUCUGU [hsa-miR-4797-3p]	57.2%	47.4%	-38.9%
UCUCCCAACCCUUGUACCAGUG [hsa-miR-150-5p]	-2.57%	224%	26.7%
UCUCCCUUCCUGCCCUGGCUAG [hsa-miR-4685-3p]	-25.3%	98.4%	29.5%
UCUCGCAUCAGGAGGCAAGG [hsa-miR-6872-5p]	-13%	56%	24.9%
UCUCUCGGCUCCUCGCGGCUC [hsa-miR-3615]	-7.12%	69.8%	27.8%
UCUCUCUCCCACUUCCCUGCAG [hsa-miR-7110-3p]	-0.286%	25.4%	1.36%
UCUCUCUGACUCCAUGGCA [hsa-miR-6817-3p]	1.99%	39.3%	1.83%
UCUCUGAGCAAGGCUUAACACC [hsa-miR-4653-5p]	18.9%	50.6%	-12.4%
UCUCUGAGUACCAUAUGCCUUGU [hsa-miR-3921]	-20.1%	59.6%	-6.05%
UCUCUGCUCUGCUCUCCCCAG [hsa-miR-6728-3p]	-7.63%	28.9%	19.2%
UCUCUGGAGGGAAGCACUUUCUG [hsa-miR-518c-5p]	33.3%	45.4%	-17.1%
UCUCUGGUCUUGCCACCCCAG [hsa-miR-6824-3p]	16.2%	26.4%	-18.8%
UCUCUGGUCUUUCCUUGACAG [hsa-miR-6764-3p]	0.623%	27.5%	17.2%
UCUCUUCAUCUACCCCCCAG [hsa-miR-6515-3p]	4.68%	85.2%	-2.57%
UCUGAAAGAGCAGUUGGUGUU [hsa-miR-4766-5p]	-18.9%	56.2%	2.75%
UCUGAAUAGAGUCUGAAGAGU [hsa-miR-4427]	-23.1%	71.5%	39.9%
UCUGAAUUGUAAGAGUUGUUA [hsa-miR-4680-3p]	-21.5%	114%	14.3%
UCUGACAUCAGUGAUUCUCCUG [hsa-miR-6719-3p]	-5.44%	115%	20.2%

Sequence	one-nucleolus phenotype percent effect (MCF10A [1])	percent viability (MCF10A [2])	5+ nucleoli phenotype percent effect (MCF10A [3])
UCUGAGAGAGCUCGAUGGCAG [hsa-miR-6761-5p]	-17.3%	56.8%	9.71%
UCUGAGGCCUGCCUCUCCCCA [hsa-miR-4649-3p]	23.9%	54.4%	-6.15%
UCUGAGGUGGAACAGCAGC [hsa-miR-7162-3p]	19.5%	27.2%	-23%
UCUGAGUUCCUGGAGCCUGGUCU [hsa-miR-4682]	-20%	104%	18.8%
UCUGCAAGUGUCAGAGGCGAGG [hsa-miR-2276]	-15.8%	160%	38.4%
UCUGCACUGUGAGUUGGCUGGCU [hsa-miR-4793-3p]	10.7%	44.7%	-3.16%
UCUGCCAUAGGAAGCUUGGAGUGG [hsa-miR-6817-5p]	-25%	65.4%	1.17%
UCUGCCAUCCUCCCUCCCCUAC [hsa-miR-4769-3p]	-18%	87%	30.9%
UCUGCCCCCUCCGCUGCUGCCA [hsa-miR-1913]	-11.1%	88.8%	54.4%
UCUGCUCAUACCCCAUGGUUUCU [hsa-miR-767-3p]	-21.6%	129%	54.2%
UCUGGAUUGAAGAGACGACCCA [hsa-miR-6839-5p]	2.28%	36.1%	-12.4%
UCUGGCAAGUAAAAAACUCUCAU [hsa-miR-3128]	10.4%	24.9%	-13.6%
UCUGGCCAGCUACGUCCCCA [hsa-miR-3190-5p]	-10.2%	48.9%	19.8%
UCUGGCCUUGACUUGACUCUUU [hsa-miR-3922-3p]	-2.7%	35.7%	6.7%
UCUGGCUAUCUCACGAGACUGU [hsa-miR-4794]	26.9%	35.9%	3.59%
UCUGGCUCCGUGUCUUCACUCCC [hsa-miR-149-5p]	30.7%	32.7%	-2.69%
UCUGGCUGUGCUGUAAUGCAG [hsa-miR-6504-5p]	6.53%	54.2%	-5.01%
UCUGGCUGUUGUGGUGUGCAA [hsa-miR-3064-5p]	46.2%	17.8%	-22.7%
UCUGGGAGGUUGUAGCAGUGGAA [hsa-miR-3192]	62.5%	14.6%	-19.2%
